For the data set the following is noted: Pseudomonas aeruginosa (strain ATCC 15692 / DSM 22644 / CIP 104116 / JCM 14847 / LMG 12228 / 1C / PRS 101 / PAO1), 25 °C, GdnHCl, CD, Sodium acetate 20 mM, whole UniProt chain shown.

Data on one protein can be found in FireProtDB (doi:10.1016/j.bpc.2008.09.020).

B1: Cytochrome c-551 wild type, P00099 (protein)
chain: MKPYALLSLLATGTLLAQGAWAEDPEVLFKNKGCVACHAIDTKMVGPAYKDVAAKFAGQAGAEAELAQRIKNGSQGVWGPIPMPPNAVSDDEAQTLAKWVLSQK
As to B1, where the note is “pH 3.6”, the denaturant m value was found to be 2.88 kcal/mol/M, the “denaturant midpoint (higher = more stable)” value was 1.44 M and the unfolding free energy turned out to be 4.14 kcal/mol. Further, for the setting “pH 5”, the denaturant m value was found to be 2.64 kcal/mol/M, the “denaturant midpoint (higher = more stable)” value turned out to be 2.06 M and the unfolding free energy was determined as 5.44 kcal/mol.
